Results on five variants are retold here after FireProtDB (doi:10.1021/bi00358a035).

To fix the notation:
B1: Tryptophan synthase alpha chain, P0A877 (parent)
chain: MERYESLFAQLKERKEGAFVPFVTLGDPGIEQSLKIIDTLIEAGADALELGIPFSDPLADGPTIQNATLRAFAAGVTPAQCFEMLALIRQKHPTIPIGLLMYANLVFNKGIDEFYAQCEKVGVDSVLVADVPVEESAPFRQAALRHNVAPIFICPPNADDDLLRQIASYGRGYTYLLSRAGVTGAENRAALPLNHLVAKLKEYNAAPPLQGFGISAPDQVKAAIDAGAAGAISGSAIVKIIEQHINEPEKMLAALKVFVQPMKAATRS

Where “and” joins values, the source holds several entries; their conditions need not be identical. Equal entries are not always repeated.

In this data set the parent is B1. The note with it: Escherichia coli (strain K12); pH 7.8; 25 °C; Urea; CD; Potassium phosphate 10 mM; transition: 3; reversible: yes (>90%); structure 1WQ5; whole UniProt chain shown.

In the case of F22L, the denaturant m value was 3.1 kcal/mol/M and 1.2 kcal/mol/M; the “denaturant midpoint (higher = more stable)” value (from here on “denaturant midpoint”) is 2.54 M and 3.62 M; the unfolding free energy is 7.9 kcal/mol and 4.2 kcal/mol.

As to G211E, the denaturant m value was 3 kcal/mol/M and 1.5 kcal/mol/M; the “denaturant midpoint” value is 2.73 M and 3.72 M; the unfolding free energy was 8.1 kcal/mol and 5.4 kcal/mol.

Turning to G234D, the “ddG of mutation (higher = less stable)” value is -1.4 kcal/mol and -2 kcal/mol; the denaturant m value was 2.6 kcal/mol/M and 1.8 kcal/mol/M; the “denaturant midpoint” value was 2.78 M and 3.99 M; the unfolding free energy is 7.1 kcal/mol and 7 kcal/mol.

As for G234K, the denaturant m value was 2.3 kcal/mol/M and 1.2 kcal/mol/M; the “denaturant midpoint” value is 2.65 M and 3.81 M; the unfolding free energy is 6.2 kcal/mol and 4.7 kcal/mol.

Take E49M: the “ddG of mutation (higher = less stable)” value is -3.7 kcal/mol and -2 kcal/mol; the denaturant m value was 2.8 kcal/mol/M and 1.4 kcal/mol/M; the “denaturant midpoint” value was 3.33 M and 4.92 M; the unfolding free energy is 9.4 kcal/mol and 7 kcal/mol.
